We go through 4 substances from patent publication US20180038858A1.

Experiment [1] addresses hCXCR1 (human) (UniProt P25024). In words: cell-based or functional assay.
The target in experiment [2] is CCR7 (human) (UniProt P32248). In words: cell-based or functional assay.
For experiment [3], the target named is CCR1, 3 and 5-expressing cells (chemokine receptor-expressing cells) (human). The experiment is described as follows: blood of a healthy donor passed through a column of biotinylated RANTES coupled streptavidin matrix; flow cytometry before and after. For orientation: Flow cytometry measures light scatter and fluorescence of single cells or particles in a stream.

Chain of hCXCR1 (human) (P25024 whole entry): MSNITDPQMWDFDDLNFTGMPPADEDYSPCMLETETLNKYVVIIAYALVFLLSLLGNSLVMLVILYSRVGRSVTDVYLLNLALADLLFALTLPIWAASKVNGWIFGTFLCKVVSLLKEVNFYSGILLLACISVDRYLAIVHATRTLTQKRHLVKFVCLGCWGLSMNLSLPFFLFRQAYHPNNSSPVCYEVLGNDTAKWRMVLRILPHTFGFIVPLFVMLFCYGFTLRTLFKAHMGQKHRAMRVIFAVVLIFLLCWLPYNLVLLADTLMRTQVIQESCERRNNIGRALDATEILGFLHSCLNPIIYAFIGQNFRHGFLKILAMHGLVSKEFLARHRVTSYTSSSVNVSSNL
Chain of CCR7 (human) (P32248 25-378): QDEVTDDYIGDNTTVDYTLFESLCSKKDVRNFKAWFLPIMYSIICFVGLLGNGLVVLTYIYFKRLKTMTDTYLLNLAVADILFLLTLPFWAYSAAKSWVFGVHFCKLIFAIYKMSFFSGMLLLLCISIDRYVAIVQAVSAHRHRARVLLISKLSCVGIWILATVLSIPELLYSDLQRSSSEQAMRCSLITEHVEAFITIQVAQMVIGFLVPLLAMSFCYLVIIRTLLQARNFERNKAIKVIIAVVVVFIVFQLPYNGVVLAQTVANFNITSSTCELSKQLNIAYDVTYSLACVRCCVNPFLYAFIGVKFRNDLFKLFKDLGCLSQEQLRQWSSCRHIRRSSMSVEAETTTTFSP
Chain of biotinRANTES (CCL5), RANTES derivatised at Lys(67) with Biotin (P13501 other isoform, or with tags, fused parts or gaps): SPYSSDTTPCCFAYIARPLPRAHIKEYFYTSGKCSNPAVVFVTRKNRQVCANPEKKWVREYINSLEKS

“recombinant native IL-8 (from UniProt P10145 28-99) (ligand)”: in experiment [1], the EC50, agonist activity in an Aequorin assay was found to be 4.2 nM.

“recombinant native MIP-3β (from UniProt Q99731 22-98) (ligand)” showed an EC50, agonist activity in an Aequorin assay in experiment [2] of 1.6 nM.

In experiment [1], “biotinIL-8 (6-78), IL-8 (6-78) derivatised at Lys(78) with PEG-Biotin (from UniProt P10145 28-99) (ligand)” registered an EC50, agonist activity in an Aequorin assay of 6.1 nM.

In turn, “biotinRANTES (CCL5), RANTES derivatised at Lys(67) with Biotin (from UniProt P13501 24-91) (ligand)” yielded a reduction of chemokine receptor-expressing cells by the column in experiment [3] of 20%.
